Test: soluble on expression in E. coli; label from the status in PepcDB or PDB records

Soluble on expression in E. coli, not soluble:
MGSDKIHHHHHHLAAEIIAVTQQKGGVGKSTIAMHLGAAFHEKGKRVLVVDADGQNTLIHWASASSDGDTGIPFPVVNLSEAGSQIHREIKKFVADYDIIVVDCPPSITEKVSGVVLLAASVAVIPTSSSPADYWSSIGLVKLVQQAQLMNEDLRAVFLLNKTEEKRMLTRELKRALEELGFPLLKTQIPTREAYKQAMALGQTVLQMNDRGAKLAAIEVRACANEIAALLP, MGSDKIHHHHHHLAARNFPPVLPFSPRKIAVLHAKAVGDFIVILPALDAIKRTYPEAELILLAKPWVKEFFSGRPSPVDRVLSLPPLAGVNDPVESKGRVPSTGSGVYPVEVELFCQAMQGEKLDVVIHMQGDGKSVNPFINKFAARVTAGMCNPPAESLDRSIPYVHYQSEVLRNLEVASLIGARTTSTGFEPRIEVTESDEQETESVRQTIKGKPYVVIHPGADDIRRVWPAVRFAEAADCLLEKGYAVVVTGTPKEEERVATVIRAMSRPAIPCTRLGLCGLAALLQHSALVISNDTGPLHLARAVGARTVGIYWAPNILNWGPLSRDRHRLAIGWQLECPQCGIRPVSPWPFQPQTSDCSHPYSFVESVPVAEVLALATELLGLTTEH, MGSDKIHHHHHHLANLGFDFSPDFRPLAARMRPRVLSEYIGQSHLLGEGKALRVALEANRAHSMLLWGPPGTGKTTLAELIAHYANAHVERISAVSSGVKDIRAAIEQAKAVAQSRGQRTLLFVDEVHRFNKSQQDAFLPYIEDGTVIFVGATTENPSFELNNALLSRARVYLIHKLTETEITEIIIQALEDTERGLGKRQLIIPPEVMAELTHVSDGDARKALNLIELMSDLVADGDAVNLEMLSQVVGHKAAGYDKNGDQFYDLISAVHKSIRGSAPDAALYWFCRILEGGGDPLYVARRLLAIASEDIGNADPVAMTVALNAWDCFHRVGPAEGERAIAQAVLYLASAPKSNAVYTAFSAARELAHATGHEAVPNHLRNAPTKLMKTLAVGEGYRYAHDEPNAYAAGECYLPPSLEGQQFYQPTERGFEKRIKEKLAQLNQLDGHSRVKRYD, MGSDKIHHHHHHLELPLPPPGEDIVGQVHVIKAKYEDTFADIGTANDLGYLEMIAANPGVDPWLPGAGTEIILPTRFVLPPGPREGIVINLAEYRMYYFPKGESVVYTFPLGIGREGWGSPIANTRITAKTPNPTWTPPASIRKEHAEDGDILPTVVPAGPDNPLGPFKFTLGVPGYLIHGSNKKFGIGMRTSHGCFRMFNNNVLELSKMVPVGTPVRIINEPYKFGISAGKVYLEAHTPLDDQGNPSVVDKHTAVINALLKREDLANNLRMNWDMVRDVVAAEDGMPVEIAVPVENQGAAPMVTSIPPELQ, MGSDKIHHHHHHLGFKIEAELLQAMKDLKDSVPASGSERVRNEFIQILLSELPSQGIRRLLELGLLERLIPELMPAIGFDTRSSYHDKDVFEHSLAVLDNTEPNLTLRLAALLHDIDKPNSLTVDEDGEGYCYGHASGGSEIARTILGRLNFDRKTIKAVSAIIKEHMNDFENISELSIKRLIRRVGPDNIDRLFELQLADIKGSKLSSRSPERITKTRNKCFEVLSRREPLTVHDLDISGYDLFSLGYPPGKEIGEAMDYLLDQVINNPSLNQRDTLIALLMNQ, MGSDKIHHHHHHLGILDAPAVQPSKVGLEALYAKTSASLGLFHTSLAGRHFAPCKILVVGDSISEGAGATLNIRNRWQDRLKENLRSRFPTDGSPGTTLHYVPAMNVVNMPGDMAVRSAGVTTGTSFGFGARHAQLTAAGHTVTFTVTGTSAKVVYPKSSGGGSFTWQVDGGTVSSAVSQSAGSLTDGFTTDIPLGASGSHTVVIAWVSGGSVFIDGLLVYNGDETKGIHVIDGAHSGWGAQNFQLNGIQFYQGSLTTMLQPSLVIIALGINDFAFGSLSIANYKIHMQSNIDRYRGAIPTKPPSILLVAMHRRSPVSAVATWAEYVQAMKELAQANDGVAFLDLSARLPQVSGDTRGLYADEVHPANLGHSAIADNVTSFIVPR, MGSDKIHHHHHHLITVQDLELRAGARLLMDQVSFRIDKGDKIGLVGRNGAGKTTLTRVLAGEGLPAAGKVTRSGEIGYLPQDPRTPDMEQLARDRILSVRGLDIAVGKLRLAHEEMASEDAAVQRKAMNRYDRLESEFLAAGGYAAEAEAAAICSNLALPDRLLNQPLKTLSGGQRRRVELARILYSDAETMLLDEPTNHLDADSIAWLRDFLKNHQGGLIVISHDTELLEATVNKVFLLDANRAQIDFYNMDWKRYLQQRETDERARKRERANAEKKAQVLFDQANKMRAKATKAVAAQNMAKRAERLLSGLEAVRENDRVAALRFPDPSPCGKTPLTADGLSKSYGSLEIFTDVDLAIDRGSKVVILGLNGAGKTTLLRMLAGVDKPDTGEVIAGHGLKVGYYAQEHETLDVDRTVLQNMRSSAPDMNDSEVRGILGSFLFSGDDVDKPAGVLSGGEKTRLALATIVASSANVLLLDEPTNNLDPASRTEILGALRNYTGAVVLVSHDEGAVEALNPERVVLLPDGVEDHWNEDYLDLITLA, MGSDKIHHHHHHLKAAIVTHLDQAPIYGDFPAPKPAPKQVLITVLASSVNQRVRSQADGSHYTKTPELPFIPGLDGVGRTSDGQLVYFLTRDPKFGALAEQTVTQQQLMFPLPEDADPAQIAASVNPAMAGWMALRVKAGQVVGKRVLVLGATGAAGTAAVQIAKTMGAAHVAGVGRNPDKLAALSDLGADTTVQLGDTAALAALPPADIVLDFLWGAPSATVMMTLLKARRDHAAKLIWIEIGGAAGPTLSLPAAALRSTGLTLVGSGQGSLTLADYQRELPALFTALTAGKFVTPTTVLSLSQVHDHWQDRGAARLVFQP, MGSDKIHHHHHHLRMSRIQARLLQAIVRPALKTNLLKHAAWRVVLKLRNEFAHAVPPVELETTFDENIRILTSLSDHIESQVFWQGFQEADEGVILLLKRFLPSDGSFIDVGANIGTFTLVAAHRAVRGQVHAFEPSAHHFARLAHNVELNDFKNVALNRKGLYDQPGEAVLFLPSQTGEMNNSGAASLYTSALEETRQVSEAVSLIRLDDYVREKSIGRVDIIKIDIEGAELKALEGARETIARFRPLVFMELDLDNLERAERSPEEVLQYWKSLNYEVSIILLTGETVPVTSPKEFGLHQNLQCRPF, MGSDKIHHHHHHLRVGEVAPTAIDLHIHTIESDGSLSVAGVIQEAAERGVRVLALTDHETTNGVPEAMELGQKHNLNIIPGVELITAFKGKEVHLLGYFSYAAMMHSDLQSRLKELRQQRTYLAFEMVKRLQKDGFTLKWAEVEKIANPEGAVSKGHIMRALHEHENGTIQWPVIAKLFQPYGIAYLPFLEHPFEEAVDLIYTCGGVPVLAHPGLLRDDRMVGELLSYLPMGLEVYYGYWEQREALIQNYKTIAQDKAILTTGGSDFHGLFGPVKLGEIEVPEQCSRELQTFLKLDF, MGSDKIHHHHHHLVNFIRKNVLPQFGFSREHSTLYPLGNGHINQTFLVSDKSKSLVLQRINTQIFTDPKVVIQNAANISQHLLIKRQQLHYPLQVVSPIATVAGALYLDLGEQGFWRAIDYLPHSTTIEVVDTLNQAKLAAEAFGHFAEALSDLNPSCIADVIPNFLNLPQRIAQLREAKAGDTHNRFSHCIDWVGLCLSQTDLLATLVQYEAELPIRICHNDTKINNMLFDNRDMSSMAIIDLDTCMKGYLMYDFGDMVRAFCSPETEDSTNLTNVYARPEIVIAAATSYMESLGGIITPLEKRSLWLGTKVMSLMLGVRFLTDYLNGDTYFGVKYQTHNLDRAINQLTIYQSLLQQEAQLMPLFNS, MGSDKIHHHHHHMAAALDGIRVLDLSRVLAGPWASQALADLGAEVIKIERPGAGDDTRSWGPPFLKDEDGRETTDAAYFLAANRGKKSLTVDITKAEGQDLVRALAARSHVVIENFKLGGLAKYGLDWPSLRAVNPALVYCSITGFGQTGPYAPRAGYDAMIQAMSGLMSVTGEPDGVAGGGPMKVGVAVTDILTGLYAAFGILAALRHAEATGEGQHIDLALMDTAVACMANQAANALVGERVPGRLGTAHPNIVPYQAFATQDGHLMLAVGNDGQFARLCAIGQRPDLPLDPRFARNRDRVAHRAALLAEIIPMMASRSTDAWIAALESAGVPCGPINTLDRVFADPQVIARGLRVDGTHAEAGTVPMVRNPLLLSATPPTHTAGPPTLGQHTDGVLSDVLGLTAEDITTLRQKAIV, MGSDKIHHHHHHMAARLREFRRAIGDPDREEFARSIGVSKTTLASYERGESEPTASVLFAYREKHGADVLWLVGGEGEMRGSQLSSAAVAERDFVLMPQYDVCASAGTGRLPVNQMPTSETAFERKFLRDLGGAPDHCFLMWSTGDSMLPSIPDNALLIVDASQTTVDHGRIYVFSVGNAVLVKRANWRMDGRLDLISDNTAGKYPVETFDANRVEDLAVVGRVIFVGHPP, MGSDKIHHHHHHMADFNQYTRWEHQMHGVKLPRWDDLPKFDLYMDQVTALINDVLGPLGIDTVTPAMINNYVKHNVIMAPVKKKYQTMQLTDILMISLLKPMFQTDTVRSGIDQITAGDYPKQAYDNFIGQLEDRLHHLGEDQVQPAAQNLNEKLMQVAVDTVVSRLQSEKLLRLIKRPLRKIEKK, MGSDKIHHHHHHMADFPTRPDEVDAVWLEARLADAGVLDGARIVKVEWQSIGTGQVGDTARFSLTYDRPAPLAPASVAAKFPSSDPTSRQTAASFSLYKREVNFYRDVAGLIDMRVPRAYAALLDDNGCDFVLLFEDLGPCEAGNQLSGCGIDQARDALRQAAALHAATLDHPVLDSEWLQTDPQASAMLRALYPQAQAIFRERYADALDPALMAICDELDECADLWFDRKPARRSFLHGDFRLDNMLFGIRDGQEPIALVDWQTAAVGCGLTDIGYFMGCGIGSGLRRPHEAALLDLYCAEMTRRGVAMTRDEIMDDYRIGALHGVSTAVFSSAFVVRTERGDANFLSMARGACELALEHNSLGALKRRMENA, MGSDKIHHHHHHMADLTDLERTRHLVDLLAPARKTRIVDIGANPINDNPYAPLLDIGAAEVWGFEPQTEAFDKLVARNAPDEHYVNAAVGKGGTGTLNICASSGTSSLLTPNVDAMDAVTGWHKYFEVVGTVDVETKRLDNIAEIPEFDLLKIDVQGAEREVFTYGKKRLSTALAVITEVAAIPLYEDQPLLGDQMVLLGKLGFDLHKFLFWKDVVLRSKYLNGMRRRRMRTQLVDGDAVFVRDLLHLKDMETERLKHLTLLADAVFESFDMVLYCLEILEDRGVLTEAAIRTYVARMPYQRDPQPRLVESVGQ, MGSDKIHHHHHHMADNETIPSCANCSAVWQKSGTTNCWSSPDNRPGQPANCPSKTSPDIIDESFAEYRGDGDDARLARVAARVEGLCYQKMQGSDAVVARWTRVEDTVALAKLMGWTKVGIATCIGLLEETKQLVTILEAQGLEPASVCCKSGSIDKLELGLEESDKVRPGTFEPACNPIAQAEILNRCGTQMNIIVGLCVGHDMLFTKHSKAPVTTLVCKDRVTGHNPAAVLYGQNFYYKRLKVQPVAVPTEEK, MGSDKIHHHHHHMADQKETIKPFKKIAIFDIFSGENSEIICSDKSKIAAQVNKWVNRAISNGADSCYVRLYEANKENIDTIIENLSYKILQIILPFSLNYKSSLVSAFHFREKDQIKMPEAKSNNVLFGKSCHSLKSIEEAEYEGLDYVFFSPIFATPTHPEAKGIGLDMLTQACKSTQMKVFALGGINENNYQKCLDAGASGIAAISMFKK
